Patent US20190248902A1 (published 2019)
Residue numbers refer to the chain shown, from its start.

T1: Cyno ASGR-1 (cynomolgus monkey, UniProt P07306 1-291 (human entry))
T1 construct: Expressed on HEK 293 cells or as membrane prep on beads; cDNA from XP_005582755; also called cynomologus monkey ASGR-1
T1 chain: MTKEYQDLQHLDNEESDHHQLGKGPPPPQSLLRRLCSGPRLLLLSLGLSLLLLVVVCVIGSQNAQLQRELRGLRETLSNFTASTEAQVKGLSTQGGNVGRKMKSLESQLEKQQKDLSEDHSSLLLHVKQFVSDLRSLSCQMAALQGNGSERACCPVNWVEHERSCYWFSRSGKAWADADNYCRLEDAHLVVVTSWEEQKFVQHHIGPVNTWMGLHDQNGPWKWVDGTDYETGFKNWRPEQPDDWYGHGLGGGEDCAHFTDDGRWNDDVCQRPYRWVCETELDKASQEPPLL

T2: Pig ASGR-1 (pig)
T2 construct: Expressed on HEK 293 cells or as membrane prep on beads; cDNA GenBank NM_001244458
T2 chain: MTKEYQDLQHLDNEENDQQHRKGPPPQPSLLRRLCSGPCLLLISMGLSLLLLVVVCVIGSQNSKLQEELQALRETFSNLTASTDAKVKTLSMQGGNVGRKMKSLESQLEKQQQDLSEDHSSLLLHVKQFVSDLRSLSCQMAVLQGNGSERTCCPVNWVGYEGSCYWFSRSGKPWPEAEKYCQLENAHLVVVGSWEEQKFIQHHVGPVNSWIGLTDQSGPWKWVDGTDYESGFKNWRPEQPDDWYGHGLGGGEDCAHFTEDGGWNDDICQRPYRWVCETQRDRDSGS

T3: Rat ASGR-1 (rat, UniProt P02706 1-284)
T3 construct: Expressed on HEK 293 cells or as membrane prep on beads; cDNA GenBank NM_012503
T3 sequence: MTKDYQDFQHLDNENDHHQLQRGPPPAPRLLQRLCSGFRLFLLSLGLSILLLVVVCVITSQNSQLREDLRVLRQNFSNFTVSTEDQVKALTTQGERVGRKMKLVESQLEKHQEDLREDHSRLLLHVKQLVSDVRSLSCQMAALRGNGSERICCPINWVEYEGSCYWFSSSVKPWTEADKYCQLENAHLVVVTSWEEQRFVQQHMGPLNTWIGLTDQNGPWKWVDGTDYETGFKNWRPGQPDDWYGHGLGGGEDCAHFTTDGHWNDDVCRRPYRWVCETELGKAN

T4: Dog ASGR-1 (dog)
T4 construct: Expressed on HEK 293 cells or as membrane prep on beads; cDNA GenBank XM_546579
T4 chain: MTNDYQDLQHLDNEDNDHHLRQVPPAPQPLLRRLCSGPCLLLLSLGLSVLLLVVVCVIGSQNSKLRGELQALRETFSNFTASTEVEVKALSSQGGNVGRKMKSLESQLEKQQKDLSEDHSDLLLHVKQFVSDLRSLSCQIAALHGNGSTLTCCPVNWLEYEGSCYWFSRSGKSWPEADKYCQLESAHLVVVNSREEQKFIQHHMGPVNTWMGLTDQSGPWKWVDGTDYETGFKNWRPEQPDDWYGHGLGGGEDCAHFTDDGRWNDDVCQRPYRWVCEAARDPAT

B1: 7E11 (antibody, V domains shown)
VH: QVQLVESGGGVVQPGRSLRLSCAASGFTFSSFGMHWVRQAPGKGLEWVAIIWHDGSNKYYADSVKGRFTISRDNSNNTLYLQMSSLRAEDTAVYYCARDLSMGGMDVWGQGTTVTVSS
VL: DIQMTQSPSSLSASVGDRVTIACRASQNIISYLNWYQQKPGKAPKFLIYTASSLQSGVPSRFSGSGSGTDFTLTISSLQPEDFAIYYCQQTYSTPLTFGGGTKVEIK
notes: Tested as hybridoma supernatant at normalized concentration
B2: 194A4 (antibody, V domains shown)
VH: QVQLVQSGTEVKKPGASLKVSCKASGYTFTVYYLNWVRQAPGQGLEWMGWINPNSGGTNYAQKFQGRVTMTRDTSISTAYMELSRLRSDDTAVYYCARGYDILTGWGQGTLVTVSS
VL: EIVLTQSPGTLSLSPGERATLSCRASRGVSNIYLAWYQQKPGQAPRLLIYGASNRATGIPDRFSGSGSGTDFTLTISRLEPEDFAVYYCQHNDYSMFTFGPGTKVDIK
notes: as for B1
B3: 4B1 (antibody, V domains shown)
VH: QVQLQESGPGLVKPSETLSLTCSVSGDSISSYSWSWIRQPAGKGLEWIGRIYTSGSTNYIPSLKSRITMSVDTSKKQFSLKLSSVTAADTAVYYCARDLKSSGCLFFDYWGQGTLVTVSS
VL: DIQMTQSPSSLSASVGDRVTITCRASHTIRTYLNWYQQKPGKAPKLLIYAASSLQSGVPSRINGSGSGTDFTLTITNLQPEDFATYYCQQSYNISFTFGPGTKVDIK
notes: as for B1
B4: 198D2 (antibody, V domains shown)
VH: QVQLVESGGGVVQPGRSLRLSCAASGFTFRSYGMHWVRQAPGKGLEWVAVIIYDGSYKYYADSVKGRFTISRDNSKNTLYLQMNSLRAEDTAVYYCARTYSGGMDVWGQGTTVTVSS
VL: QSVLTQPPSVSAAPGQKVTISCSGSSSNIGSNYVSWYQQLPGTAPKVLIYDNNKRPSGIPDRFSGSKSGTSATLGITGLQTGDEADYYCGTWDSRLNVGVFGGGTKLTVL
notes: as for B1
B5: 72G9 (antibody, V domains shown)
VH: EVQLVESGGGLVKPGGSLRLSCAASGFTFSSYSMNWVRQAPGKGLEWVSSISGSSSYIYYADSVKGRFTISRDNAKNSLYLQMNSLRAEDTAVYFCARGGSRGFDPWGQGTLVTVSS
VL: DIQMTQSPSSLSASVGDRVTITCRASQSITSYLNWYQQKPGKAPKLLIYTASSLQSGVPSRFSGSGSGTDFTLTISSLQPEDFATYYCQQSHSFPFTFGPGTKVDIK
notes: as for B1
B6: 56E5 (antibody, V domains shown)
VH: QVQLVQSGAEVKKPGASVKVSCQASGYTFTGYHMHWVRQAPGQGLEWMGWINPNNNATNYAQKFQGRVTMTRDTSISTAYMELRRLRSDDTAVYHCARDGTSSFDYWGQGTLVTVSS
VL: B5 VL with L11V, S28G, T30R, S31K, Y32W, N34A, T50A, S91A, H92N
notes: as for B1
B7: 7G4 (antibody, V domains shown)
VH: QVQLVESGGGVVQPGRSLRLSCAASGFTFNNYVMHWVRQAPGKGLEWVAVIWYDGSNKYYADSVKGRFTISRDNSKNTLYLQMTSLRAEDTAVYYCAREKYSSNWYDYGMDVWGQGTTVTVSS
VL: DIQMTQSPSSLSASVGDRVTITCRASQGIRNDLGWYQQRPGKAPKRLIYAASSLQSGVPSRFSGSGSGTEFTLTISSLQPEDSATYYCLHQYSYPRTFGQGTKVEIK
notes: as for B1
B8: 25A4 (antibody, V domains shown)
VH: QVLLVQSGAEVKRPGASVKVSCKASGYTFTNYDINWVRQATGQGLEWMGWMYPNSGNTGYAQKFQGRVTMTRNTSISTAYMELSSLRSEDTAVYYCASSSGWYYFDYWGQGTLVTVSS
VL: DIVMTQFPDSLAVSLGERATIKCKSSQSVLYSSHNNNYLAWYQQKPGQPPKLLLYWASTRESGVPDRFSGSGSGTEFTLTISSLEAEDVAVYYCQQYYSTPPTFGQGTKVEIK
notes: as for B1
B9: 26C4 (antibody, V domains shown)
VH: B8 VH with L3Q, R13K, T41S, Y52N, K63R, S77N
VL: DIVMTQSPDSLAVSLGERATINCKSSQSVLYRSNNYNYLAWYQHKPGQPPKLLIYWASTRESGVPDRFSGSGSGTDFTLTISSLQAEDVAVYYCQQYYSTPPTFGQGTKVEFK
notes: as for B1
B10: 29H8 (antibody, V domains shown)
VH: B8 VH with L3Q, K12Q, R13K, Y52N, K63R, T78A
VL: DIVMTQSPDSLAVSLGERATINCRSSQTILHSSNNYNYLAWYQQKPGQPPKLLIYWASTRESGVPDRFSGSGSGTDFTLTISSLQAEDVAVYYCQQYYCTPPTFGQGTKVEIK
notes: as for B1
B11: 48B12 (antibody, V domains shown)
VH: EVQLLESGGGLVQPGGSLRLSCAASGFTFSSYAMNWVRQAPGKGLEWVSAISGRGGNTFYADSVKGRFTISRDNSKNTLYLQMNSLRAEDTAVYYCAKRETYNWNYEGFDYWGQGTLVTVSS
VL: SYELTQPPSVSVSPGQTARITCSGDALPKKYAYWYQQKSGQAPVLVIYEDSKRPSGIPERFSGSSSGTMATLTISGAQVEDEADYYCNSTDSSGNHVVFGGGTKLTVL
notes: as for B1

How the values were obtained:
Cyno ASGR-1 = biological target: T1, Cyno ASGR-1; assay: FACS on transfected HEK 293 cells or membrane preps on beads; Y = signal at least 2x irrelevant IgG
Protocol: (§1) Human ASGR-1-specific, ligand competing antibody samples were tested for binding to ASGR-1 from other species (cynomologus monkey ASGR-1, mouse ASGR-1, rat ASGR-1, dog ASGR-1, and pig ASGR-1) as well as to human ASGR-2 in FACS binding assays at normalized antibody concentrations. For cell-based assays, HEK 293 cells expressing the appropriate antigen of interest were mixed with antibody sample or controls, incubated for 1 hour at 4° C., and then washed twice. Cells with bound antibody were then incubated with Alexa Fluor® 647 IgG Fc fragment-specific detection antibody and 7-AAD viability stain for 15 minutes at 4° C., washed once and resuspended in FACS buffer. Samples were analyzed using a BD Accuri™ Flow Cytometer and an Intellicyt HyperCyt Autosampler. As a negative control, supernatants and controls were also screened against HEK 293 cells transfected with empty parental vector. […] For membrane-prep binding assays, ASGR-1 species specific membrane preps were used to coat LumAvidin® microspheres (beads) and tested for binding to selected hybridoma supernatants or controls. Briefly, ASGR-1 species specific membrane preps were incubated with streptavidin-coated LumAvidin® beads for 45 minutes in the dark at room temperature and washed twice. Beads were resuspeneded in FACS buffer containing Stabilguard®. Antigen-bound beads were then incubated with normalized antibody sample for 1 hour in the dark at room temperature, washed twice, incubated with Alexa Fluor® 488 IgG Fc fragment-specific detection antibody for 15 minutes in the dark at room temperature, washed once and finally resuspended in FACS buffer. Samples were analyzed using an Intellicyt iQue™ Screener Platform. FACS buffer supplemented with 1 mM Calcium Chloride was used in all steps. As a negative control, supernatants and controls were also screened against a non-ASGR-1 antigen membrane prep coated on the LumAvidin® beads.

Pig ASGR-1 = biological target: T2, Pig ASGR-1; assay: as above
Protocol: as §1

Rat ASGR-1 [1] = biological target: T3, Rat ASGR-1; assay: FACS on transfected HEK 293 cells or membrane preps on beads; binding = signal at least 2x irrelevant IgG
In short: (§2)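 Antibodies at normalized concentrations bound 1 h at 4° C to HEK 293 cells expressing each antigen, then Alexa Fluor 647 anti-Fc plus 7-AAD 15 min at 4° C, flow cytometry; empty-vector cells as negative. Alternatively, species ASGR-1 membrane preps on streptavidin beads, antibody 1 h RT, Alexa Fluor 488 anti-Fc; FACS buffer with 1 mM CaCl2 throughout.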

Dog ASGR-1 [2] = biological target: T4, Dog ASGR-1; assay: as above
In short: as §2

Rat ASGR-1 [3] = biological target: T3, Rat ASGR-1; assay: FACS on transfected HEK 293 cells or membrane preps on beads; Y = signal at least 2x irrelevant IgG
Protocol: as §1

Dog ASGR-1 [4] = biological target: T4, Dog ASGR-1; assay: as above
Protocol: as §1

Binder | binding result (Cyno ASGR-1) | binding result (Pig ASGR-1) | binding result (Rat ASGR-1 [1]) | binding result (Dog ASGR-1 [2]) | binding result (Rat ASGR-1 [3]) | binding result (Dog ASGR-1 [4])
B1 | binds | binds | no binding | no binding |  | 
B2 | binds | binds |  |  | binds | binds
B3 | binds | binds |  |  | binds | binds
B4 | binds | binds |  | no binding | binds | 
B5 | binds | binds |  |  | binds | binds
B6 | binds | binds | no binding | no binding |  | 
B7 | binds | binds | no binding | no binding |  | 
B8 | binds | binds |  | no binding | binds | 
B9 | binds | binds |  | no binding | binds | 
B10 | binds | binds |  | no binding | binds | 
B11 | binds | binds | no binding | no binding |  | 
